These results are taken from paper PMC10720983.

Usually stoichiometry N stands for the number of molecules, sites or subunits per partner or assembly.

The assay concerns the target DtpM (dithiolopyrrolone methyltransferase) (Saccharothrix algeriensis). The experiment in a line: SEC-MALS.

Take “DtpM (dithiolopyrrolone methyltransferase) (enzyme)”: the stoichiometry N amounted to 2.
